Protein stability index data for 94 variants are collected here from the supplement of paper PMC10567573.

First the molecules themselves.
B1: SLC35F2 (parent)
chain: QYLAERYKVNTPMLQSFINYCLLF
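Further: lentivirally expressed fusions sorted by FACS into six bins by GFP to DsRed ratio, PSI derived from sequencing read proportions per bin multiplied by bin number.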

Variants of B1 are the subject of the data set. Briefly: protein stability index of a GFP-peptide fusion (GPS, HEK-293T) (PSI 1-6); higher = more stable. Particulars: c terminus: a fixed tail appended.
Turning to QYGAERYKVNTPMLQSFINYCLLF, the protein stability index came to 2.92.

Consider QYSAERYKVNTPMLQSFINYCLLF, for which the protein stability index is 2.5. The value for QYPAERYKVNTPMLQSFINYCLLF was 3.5; that for QYKAERYKVNTPMLQSFINYCLLF was 2.43.

Regarding QYAAERYKVNTPMLQSFINYCLLF, the protein stability index was found to be 3.3. As for QYDAERYKVNTPMLQSFINYCLLF, the figure is 3; as for QYTAERYKVNTPMLQSFINYCLLF, 2.7.

Regarding QYCAERYKVNTPMLQSFINYCLLF, the protein stability index was 2.93. In the case of QYRAERYKVNTPMLQSFINYCLLF, the protein stability index came out at 2.98. The value for QYIAERYKVNTPMLQSFINYCLLF was 3.32; that for QYHAERYKVNTPMLQSFINYCLLF was 2.5. With QYYAERYKVNTPMLQSFINYCLLF, the protein stability index was 2.34. As for QYEAERYKVNTPMLQSFINYCLLF, the figure is 1.45; as for QYVAERYKVNTPMLQSFINYCLLF, 2.34; as for QYQAERYKVNTPMLQSFINYCLLF, 2.94. On to QYFAERYKVNTPMLQSFINYCLLF, for which the protein stability index was found to be 3.46.

For QYMAERYKVNTPMLQSFINYCLLF, the protein stability index was found to be 2.5.

For the variant QYNAERYKVNTPMLQSFINYCLLF, the protein stability index was determined as 2.71. The value for QYLSERYKVNTPMLQSFINYCLLF was 3.11; that for QYLFERYKVNTPMLQSFINYCLLF was 1.83; that for QYLTERYKVNTPMLQSFINYCLLF was 3.02.

As for QYLRERYKVNTPMLQSFINYCLLF, the protein stability index stood at 2.53.

On to QYLKERYKVNTPMLQSFINYCLLF, for which the protein stability index stood at 3.59. As for QYLPERYKVNTPMLQSFINYCLLF, the figure is 2.88; as for QYLVERYKVNTPMLQSFINYCLLF, 3.22.

QYLQERYKVNTPMLQSFINYCLLF: the protein stability index was determined as 2.56. In the case of QYLLERYKVNTPMLQSFINYCLLF, the protein stability index was determined as 3.42. For the variant QYLNERYKVNTPMLQSFINYCLLF, the protein stability index is 3.76.

As for QYLGERYKVNTPMLQSFINYCLLF, the protein stability index turned out to be 3.01. Consider QYLIERYKVNTPMLQSFINYCLLF, for which the protein stability index was determined as 2.65. The value for QYLYERYKVNTPMLQSFINYCLLF was 2.38; that for QYLWERYKVNTPMLQSFINYCLLF was 2.53. The value for QYLDERYKVNTPMLQSFINYCLLF was 2.26. The value for QYLCERYKVNTPMLQSFINYCLLF was 3.16; that for QYLHERYKVNTPMLQSFINYCLLF was 1.99; that for QYLMERYKVNTPMLQSFINYCLLF was 3.1. Consider QYLEERYKVNTPMLQSFINYCLLF, for which the protein stability index came out at 2.76. On to QYLAERMKVNTPMLQSFINYCLLF, for which the protein stability index came out at 1.62. As to QYLAERWKVNTPMLQSFINYCLLF, the protein stability index was determined as 1.84. QYLAERLKVNTPMLQSFINYCLLF: the protein stability index worked out at 2.35. The value for QYLAERGKVNTPMLQSFINYCLLF was 3.27; that for QYLAEREKVNTPMLQSFINYCLLF was 2.03; that for QYLAERPKVNTPMLQSFINYCLLF was 2.98. As to QYLAERSKVNTPMLQSFINYCLLF, the protein stability index was found to be 2.48. As for QYLAERTKVNTPMLQSFINYCLLF, the figure is 2.19; as for QYLAERKKVNTPMLQSFINYCLLF, 2.53; as for QYLAERVKVNTPMLQSFINYCLLF, 2.92.

QYLAERRKVNTPMLQSFINYCLLF: the protein stability index turned out to be 1.55. For QYLAERCKVNTPMLQSFINYCLLF, the protein stability index stood at 3.12. The value for QYLAERAKVNTPMLQSFINYCLLF was 3.17. Consider QYLAERNKVNTPMLQSFINYCLLF, for which the protein stability index was 2.89. For the variant QYLAERDKVNTPMLQSFINYCLLF, the protein stability index came out at 2.49. With QYLAERQKVNTPMLQSFINYCLLF, the protein stability index was found to be 3.26.

In the case of QYLAERIKVNTPMLQSFINYCLLF, the protein stability index amounted to 2.21.

For QYLAERHKVNTPMLQSFINYCLLF, the protein stability index came to 2.95. The value for QYLAERFKVNTPMLQSFINYCLLF was 2.18; that for KYLAERYKVNTPMLQSFINYCLLF was 2.27. The value for HYLAERYKVNTPMLQSFINYCLLF was 1.53; that for DYLAERYKVNTPMLQSFINYCLLF was 3.23. The value for GYLAERYKVNTPMLQSFINYCLLF was 3.99; that for TYLAERYKVNTPMLQSFINYCLLF was 2.71; that for PYLAERYKVNTPMLQSFINYCLLF was 1.77. MYLAERYKVNTPMLQSFINYCLLF: the protein stability index was 2.43. As to FYLAERYKVNTPMLQSFINYCLLF, the protein stability index came out at 2.37.

As for AYLAERYKVNTPMLQSFINYCLLF, the protein stability index is 2.56. As to VYLAERYKVNTPMLQSFINYCLLF, the protein stability index is 3.18. Consider YYLAERYKVNTPMLQSFINYCLLF, for which the protein stability index amounted to 2.86. The value for CYLAERYKVNTPMLQSFINYCLLF was 3.23.

Consider NYLAERYKVNTPMLQSFINYCLLF, for which the protein stability index is 2.15. As to RYLAERYKVNTPMLQSFINYCLLF, the protein stability index was found to be 1.94. As for SYLAERYKVNTPMLQSFINYCLLF, the figure is 2.47; as for LYLAERYKVNTPMLQSFINYCLLF, 2.23; as for WYLAERYKVNTPMLQSFINYCLLF, 2.68. The value for IYLAERYKVNTPMLQSFINYCLLF was 2.1; that for EYLAERYKVNTPMLQSFINYCLLF was 1.97.

For QELAERYKVNTPMLQSFINYCLLF, the protein stability index worked out at 1.93.

Turning to QLLAERYKVNTPMLQSFINYCLLF, the protein stability index was found to be 2.15. As for QCLAERYKVNTPMLQSFINYCLLF, the figure is 2.17; as for QNLAERYKVNTPMLQSFINYCLLF, 2.61; as for QDLAERYKVNTPMLQSFINYCLLF, 1.83.

With QWLAERYKVNTPMLQSFINYCLLF, the protein stability index was determined as 2.26. The value for QRLAERYKVNTPMLQSFINYCLLF was 2.1; that for QALAERYKVNTPMLQSFINYCLLF was 2.29; that for QMLAERYKVNTPMLQSFINYCLLF was 1.24. As for QKLAERYKVNTPMLQSFINYCLLF, the figure is 2.17; as for QSLAERYKVNTPMLQSFINYCLLF, 2.08. Take QQLAERYKVNTPMLQSFINYCLLF: the protein stability index is 1.97.

For the variant QTLAERYKVNTPMLQSFINYCLLF, the protein stability index came to 2.29. As for QILAERYKVNTPMLQSFINYCLLF, the figure is 1.68; as for QVLAERYKVNTPMLQSFINYCLLF, 2.59. Regarding QHLAERYKVNTPMLQSFINYCLLF, the protein stability index amounted to 1.89.

With QGLAERYKVNTPMLQSFINYCLLF, the protein stability index is 2.52. The value for QFLAERYKVNTPMLQSFINYCLLF was 3.47; that for QPLAERYKVNTPMLQSFINYCLLF was 1.74.
